The target of data set [1] is T1, GAPDH (commercial, rabbit muscle) (Oryctolagus cuniculus, UniProt P46406 P46406:1-333). As to the kind of experiment: cleavage enhancement similar to IL-2-Rz2. To be noted: tags: commercial; chain copies: 4 (stated homotetramer); hammerhead ribozyme with 5'-3' end duplex.
Data set [2] addresses T1, GAPDH (commercial, rabbit muscle). As to the kind of experiment: ribozyme cleavage rate enhancement; none with LD. To be noted: tags: commercial; chain copies: 4 (stated homotetramer); hammerhead ribozyme with 5'-3' end duplex. On the procedure: Autoradiogram of denaturing gels of multiple turnover reactions in the absence FIG. 32(A) or in the presence of GAPDH FIG. 32(B) as well as in the presence of LD as unspecific protein FIG. 32(C). 5 nM of the ribozyme and 50 nM of […] 15-mer substrate were incubated in a reaction mixture containing 50 mM Tris-HCl pH 7.5 and 5 mM MgCl_2 at 37° C. in the absence or presence of proteins (150 ng/μl) and then processed as described below. FIG. 32(D) Quantification of the data shown in A, B and C by Phospho-Imager. Appropriate time (min) is indicated on the top of each lane. FIG. 32(E) Control experiments. A Phospho-Imager printout is shown following separation of the products by 15% PAGE gel. No cleavage activity was seen upon addition of GAPDH in absence of Mg^++ (lane 4). The cleavage rate of the ribozyme (lane 2) is enhanced by the addition of GAPDH (Lane 3). This cleavage enhancement is shut down by phenol treatment of the GAPDH preparation prior to addition (lane 5). Arrows indicated the cleavage products.
Standard cleavage reactions were carried out at 37° C. in buffer containing 50 mM Tris-HCl, pH 7.5 and 10 mM MgCl_2. Multiple turnover cleavage reactions in the presence or absence of GAPDH were performed with 5 mM […], unless otherwise indicated. Ribozyme and substrate were heated separately at 90° C. for 1 min and cooled at 4° C. […]

The target in data set [3] is GAPDH (37 kDa ribozyme-binding protein purified from PBMN cells) (Homo sapiens, UniProt P04406 P04406:2-335). The data set can be described thus: ribozyme cleavage rate enhancement; 100 ng/ul GAPDH, 2 mM MgCl2, 37 C. To be noted: tags: none; Mono Q purified from PBMN cytoplasmic extract; chain copies: 4 (stated homotetramer); label: 32P internal; hammerhead ribozyme. On the procedure:
FIG. 29(A) Ribozymes (2 nM) and the [γ^32P]-labelled 20-mer target RNA (50 nM) were incubated at 37° C. in the presence or absence of different concentrations of purified protein (Filled rectangle) or lactate dehydrogenase (open rectangle) as unspecific protein in a reaction buffer containing 50 mM Tris-HCl pH 7.5 and 1 mM MgCl_2. […] The radioactivity contained in each 5' end was quantified by Phospho-Imager. […] Appropriate time (min) is indicated on the top of each lane. The radioactivity containing in each 5' end-labelled product was quantified and expressed as percentage of radioactivity present in the substrate FIG. 29(D).
Standard cleavage reactions were carried out at 37° C. in buffer containing 50 mM Tris-HCl, pH 7.5 and 10 mM MgCl_2. Multiple turnover cleavage reactions in the presence or absence of GAPDH were performed with 5 mM […], unless otherwise indicated. Ribozyme and substrate were heated separately at 90° C. for 1 min and cooled at 4° C. After this step both RNAs were mixed in cleavage buffer containing 0.2 U RNasin and then divided into 3 samples. Following addition of GAPDH or lactate dehydrogenase (LD) as an unspecific protein to one of the samples, reactions were initiated by the addition of MgCl_2. At specified times, 10 μl aliquots were removed and the reaction was stopped by the addition of 20 mM EDTA and phenol.

T1 sequence (P46406 whole entry, one chain of several): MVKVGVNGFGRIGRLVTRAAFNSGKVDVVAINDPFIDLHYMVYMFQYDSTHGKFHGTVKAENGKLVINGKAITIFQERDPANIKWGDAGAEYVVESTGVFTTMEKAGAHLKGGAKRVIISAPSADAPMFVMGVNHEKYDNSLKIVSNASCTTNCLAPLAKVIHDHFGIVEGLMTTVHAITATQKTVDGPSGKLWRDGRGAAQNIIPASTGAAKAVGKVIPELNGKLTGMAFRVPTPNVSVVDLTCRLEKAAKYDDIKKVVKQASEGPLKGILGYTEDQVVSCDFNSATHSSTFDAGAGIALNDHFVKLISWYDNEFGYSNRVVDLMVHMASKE
GAPDH (37 kDa ribozyme-binding protein purified from PBMN cells), sequence (P04406 2-335, one chain of several): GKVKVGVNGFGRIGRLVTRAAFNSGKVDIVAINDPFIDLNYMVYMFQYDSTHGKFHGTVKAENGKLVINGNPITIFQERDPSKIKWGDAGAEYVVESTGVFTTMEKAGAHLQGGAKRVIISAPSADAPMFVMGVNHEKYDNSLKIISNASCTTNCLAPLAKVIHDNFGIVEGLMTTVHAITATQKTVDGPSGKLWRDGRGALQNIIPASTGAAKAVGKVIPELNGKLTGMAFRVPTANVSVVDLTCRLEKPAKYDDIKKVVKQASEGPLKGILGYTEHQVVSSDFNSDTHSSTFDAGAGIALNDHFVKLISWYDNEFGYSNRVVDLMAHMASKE

B1: IL-2-Rz3 (ssRNA)
RNA: GACUUAGUGCAAUGCAACUGAUGAGUCCGUGAGGACGAAACAGGAGUUGCGAAUU
Take B1: the activity in data set [1] was around 15 fold.
As to GGUGCAAUGCAACUGAUGAGUCCGUGAGGACGAAACAGGAGUUGCGAAUU (ssRNA) [IL-2-Rz2], in data set [2], the activity was 15 fold.

B2: TNF-alpha-Rz (ssRNA)
RNA: GUAAGAUGAUCUCUGAUGAGUCCGUGAGGACGAAACUGCCUGGUACUGAAUU
On to B2, for which the activity in data set [3] stood at 3.8 fold.

For the origin of these results see patent publication US5864028, “Degradation resistant mRNA derivatives linked to TNF-α ribozymes” (Gene Shears Pty. Limited).
